PMC10397247

Legend:
Test in all cases: two-hybrid library CCmax;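 further: natural log of median RNA to DNA barcode read ratio; higher means stronger binding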
4H310-AA = biological target: T1, 4H310-AA; conditions: mean of both orientations
T1 chain: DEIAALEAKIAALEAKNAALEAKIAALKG

4H2698-AA = biological target: T2, 4H2698-AA; conditions: mean of both orientations
T2 chain: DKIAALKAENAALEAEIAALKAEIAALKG

4H3120-AA = biological target: T3, 4H3120-AA; conditions: mean of both orientations
T3 chain: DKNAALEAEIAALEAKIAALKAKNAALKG

4H3016-AA = biological target: T4, 4H3016-AA; conditions: mean of both orientations
T4 chain: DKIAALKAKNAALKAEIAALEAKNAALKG

4H570-AA = biological target: T5, 4H570-AA; conditions: mean of both orientations
T5 chain: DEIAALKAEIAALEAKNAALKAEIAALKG

4H3395-AA = biological target: T6, 4H3395-AA; conditions: mean of both orientations
T6 chain: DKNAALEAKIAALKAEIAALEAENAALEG

4H3130-AA = biological target: T7, 4H3130-AA; conditions: mean of both orientations
T7 chain: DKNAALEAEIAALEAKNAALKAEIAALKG

4H3753-AA = biological target: T8, 4H3753-AA; conditions: mean of both orientations
T8 chain: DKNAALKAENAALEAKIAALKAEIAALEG

4H536-AA = biological target: T9, 4H536-AA; conditions: mean of both orientations
T9 chain: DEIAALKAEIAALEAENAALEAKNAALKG

4H3410-AA = biological target: T10, 4H3410-AA; conditions: mean of both orientations
T10 chain: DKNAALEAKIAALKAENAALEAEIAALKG

4H930-AA = biological target: T11, 4H930-AA; conditions: mean of both orientations
T11 chain: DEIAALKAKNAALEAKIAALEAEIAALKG

4H3590-AA = biological target: T12, 4H3590-AA; conditions: mean of both orientations
T12 chain: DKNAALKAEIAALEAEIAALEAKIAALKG

4H3165-AA = biological target: T13, 4H3165-AA; conditions: mean of both orientations
T13 chain: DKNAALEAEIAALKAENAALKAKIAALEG

4H891-AA = biological target: T14, 4H891-AA; conditions: mean of both orientations
T14 chain: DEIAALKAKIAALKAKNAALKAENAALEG

4H850-AA = biological target: T15, 4H850-AA; conditions: mean of both orientations
T15 chain: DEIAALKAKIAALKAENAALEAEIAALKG

4H3865-AA = biological target: T16, 4H3865-AA; conditions: mean of both orientations
T16 chain: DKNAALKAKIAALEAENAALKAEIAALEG

4H2473-AA = biological target: T17, 4H2473-AA
T17 chain: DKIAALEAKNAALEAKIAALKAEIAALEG

4H3697-AA = biological target: T18, 4H3697-AA; conditions: mean of both orientations
T18 chain: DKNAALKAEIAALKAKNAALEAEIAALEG

4H797-AA = biological target: T19, 4H797-AA; conditions: mean of both orientations
T19 chain: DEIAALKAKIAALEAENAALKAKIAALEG

4H3009-AA = biological target: T20, 4H3009-AA; conditions: mean of both orientations
T20 chain: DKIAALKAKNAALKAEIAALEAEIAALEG

4H2649-AA = biological target: T21, 4H2649-AA; conditions: mean of both orientations
T21 chain: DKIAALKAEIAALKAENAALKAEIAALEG

4H2865-AA = biological target: T22, 4H2865-AA; conditions: mean of both orientations
T22 chain: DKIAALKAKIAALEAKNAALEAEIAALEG

4H458-AA = biological target: T23, 4H458-AA; conditions: mean of both orientations
T23 chain: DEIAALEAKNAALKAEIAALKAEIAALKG

4H629-AA = biological target: T24, 4H629-AA; conditions: mean of both orientations
T24 chain: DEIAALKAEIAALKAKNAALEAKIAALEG

4H3381-AA = biological target: T25, 4H3381-AA; conditions: mean of both orientations
T25 chain: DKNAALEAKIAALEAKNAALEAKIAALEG

4H745-AA = biological target: T26, 4H745-AA; conditions: mean of both orientations
T26 chain: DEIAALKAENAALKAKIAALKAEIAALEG

4H909-AA = biological target: T27, 4H909-AA; conditions: mean of both orientations
T27 chain: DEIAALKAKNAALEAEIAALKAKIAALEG

4H2725-AA = biological target: T28, 4H2725-AA; conditions: mean of both orientations
T28 chain: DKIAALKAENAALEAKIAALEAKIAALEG

4H710-AA = biological target: T29, 4H710-AA; conditions: mean of both orientations
T29 chain: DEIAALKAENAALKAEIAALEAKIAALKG

4H94-AA = biological target: T30, 4H94-AA; conditions: mean of both orientations
T30 chain: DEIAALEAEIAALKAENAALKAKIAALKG

4H485-AA = biological target: T31, 4H485-AA; conditions: mean of both orientations
T31 chain: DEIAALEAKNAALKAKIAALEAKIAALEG

DKIAALEAKNAALEAKIAALKAEIAALEG [4H2473-AA]
interaction score (4H310-AA): -0.305 | interaction score (4H2698-AA): 1.68 | interaction score (4H3120-AA): -0.0619 | interaction score (4H3016-AA): 1.52 | interaction score (4H570-AA): 1.26 | interaction score (4H3395-AA): -1.43 | interaction score (4H3130-AA): -0.173 | interaction score (4H3753-AA): -0.919 | interaction score (4H536-AA): -1.67 | interaction score (4H3410-AA): -0.429 | interaction score (4H930-AA): -0.124 | interaction score (4H3590-AA): 1.18 | interaction score (4H3165-AA): -1.43 | interaction score (4H891-AA): -1.65 | interaction score (4H850-AA): -0.625 | interaction score (4H3865-AA): -0.611 | interaction score (4H2473-AA): 1.2 | interaction score (4H3697-AA): -1.54 | interaction score (4H797-AA): -1.58 | interaction score (4H3009-AA): 2.07 | interaction score (4H2649-AA): -0.843 | interaction score (4H2865-AA): -0.67 | interaction score (4H458-AA): 1.39 | interaction score (4H629-AA): -1.34 | interaction score (4H3381-AA): -1.15 | interaction score (4H745-AA): -1.45 | interaction score (4H909-AA): 0.0276 | interaction score (4H2725-AA): 0.607 | interaction score (4H710-AA): 0.747 | interaction score (4H94-AA): -0.873 | interaction score (4H485-AA): 0.85
